Laboratory results published in US20230192860A1 (published 2023).
Substitutions are numbered along the chain they refer to.

B1: P1-068761_H100G_E100fF (antibody, V domains shown)
VH: EVQLVESGGGLVQPGKSLRLSCAASGFTLEDEAMHWVRQAPGKGLEWVSGINWNSEEIGYADSVKGRFTISRDNAKNSLYLQMNSLRTEDTALYYCAKVPGYSGGWIDAFDVWGQGTMVTVSS
VL: not shown
B2: P1-070878 (P1-068761_E55A_E56N) (antibody, V domains shown)
VH: B1 VH with E56A, E57N, G104H, F110E
VL: not shown
B3: P1-068761_E32Y_E55A (antibody, V domains shown)
VH: B1 VH with E32Y, E56A, G104H, F110E
VL: not shown
B4: P1-068761_E32Y_E100fF (antibody, V domains shown)
VH: B1 VH with E32Y, G104H
VL: not shown
B5: P1-068761_E100fF (antibody, V domains shown)
VH: B1 VH with G104H
VL: not shown
B6: P1-068761_E56N_E100fF (antibody, V domains shown)
VH: B1 VH with E57N, G104H
VL: not shown
B7: P1-068761_E32Y_H100G (antibody, V domains shown)
VH: B1 VH with E32Y, F110E
VL: not shown
B8: P1-068761_E30D_H100G (antibody, V domains shown)
VH: B1 VH with E30D, F110E
VL: not shown
B9: P1-068761.IgG1.3 (antibody, V domains shown)
VH: B1 VH with G104H, F110E
VL: not shown
B10: P1-068761_E32Y (antibody, V domains shown)
VH: B1 VH with E32Y, G104H, F110E
VL: not shown
B11: P1-068761_E30D_E100fF (antibody, V domains shown)
VH: B1 VH with E30D, G104H
VL: not shown
B12: P1-068761_E32Y_E56N (antibody, V domains shown)
VH: B1 VH with E32Y, E57N, G104H, F110E
VL: not shown
B13: P1-068761_E55A_E100fF (antibody, V domains shown)
VH: B1 VH with E56A, G104H
VL: not shown
B14: P1-070870 (P1-068761_E56N) (antibody, V domains shown)
VH: B1 VH with E57N, G104H, F110E
VL: not shown
B15: P1-068761_E30D_E56N (antibody, V domains shown)
VH: B1 VH with E30D, E57N, G104H, F110E
VL: not shown
B16: P1-070890 (P1-068761_E30D_E55A) (antibody, V domains shown)
VH: B1 VH with E30D, E56A, G104H, F110E
VL: not shown
B17: P1-068761_E30D_E32Y (antibody, V domains shown)
VH: B1 VH with E30D, E32Y, G104H, F110E
VL: not shown
B18: P1-070900 (P1-068761_E56N_H100G) (antibody, V domains shown)
VH: B1 VH with E57N, F110E
VL: not shown
B19: P1-070868 (P1-068761_E55A) (antibody, V domains shown)
VH: B1 VH with E56A, G104H, F110E
VL: not shown
B20: P1-070872 (P1-068761_H100G) (antibody, V domains shown)
VH: B1 VH with F110E
VL: not shown
B21: P1-070864 (P1-068761_E30D) (antibody, V domains shown)
VH: B1 VH with E30D, G104H, F110E
VL: not shown
B22: P1-061029.IgG1.3 (antibody, V domains shown)
VH: B1 VH with E30D, E32Y, E56A, E57N
VL: not shown
B23: P1-068767_D52N_E100fF (antibody, V domains shown)
VH: B1 VH with E32Y, E57N, V112D
VL: not shown
B24: P1-070914 (P1-068767_E30D_D52N) (antibody, V domains shown)
VH: B1 VH with E30D, E32Y, E57N, F110E, V112D
VL: not shown
B25: P1-070908 (P1-068767_E55A) (antibody, V domains shown)
VH: B1 VH with E32Y, N52D, E56A, E57N, F110E, V112D
VL: not shown
B26: P1-068767_E100fF_D102V (antibody, V domains shown)
VH: B1 VH with E32Y, N52D, E57N
VL: not shown
B27: P1-068767_E100fF (antibody, V domains shown)
VH: B1 VH with E32Y, N52D, E57N, V112D
VL: not shown
B28: P1-068767_E55A_E100fF (antibody, V domains shown)
VH: B1 VH with E32Y, N52D, E56A, E57N, V112D
VL: not shown
B29: P1-068767_D102V (antibody, V domains shown)
VH: B1 VH with E32Y, N52D, E57N, F110E
VL: not shown
B30: P1-068767_E55A_D102V (antibody, V domains shown)
VH: B1 VH with E32Y, N52D, E56A, E57N, F110E
VL: not shown
B31: P1-070904 (P1-068767_E30D) (antibody, V domains shown)
VH: B1 VH with E30D, E32Y, N52D, E57N, F110E, V112D
VL: not shown
B32: P1-068767_D52N_D102V (antibody, V domains shown)
VH: B1 VH with E32Y, E57N, F110E
VL: not shown
B33: P1-070916 (P1-068767_D52N_E55A) (antibody, V domains shown)
VH: B1 VH with E32Y, E56A, E57N, F110E, V112D
VL: not shown
B34: P1-070922 (P1-068767_E30D_E55A) (antibody, V domains shown)
VH: B1 VH with E30D, E32Y, N52D, E56A, E57N, F110E, V112D
VL: not shown
B35: P1-068767_E30D_E100fF (antibody, V domains shown)
VH: B1 VH with E30D, E32Y, N52D, E57N, V112D
VL: not shown
B36: P1-068767_E30D_D102V (antibody, V domains shown)
VH: B1 VH with E30D, E32Y, N52D, E57N, F110E
VL: not shown
B37: P1-070906 (P1-068767_D52N) (antibody, V domains shown)
VH: B1 VH with E32Y, E57N, F110E, V112D
VL: not shown

Molecular target: T1, monovalent hVISTA-ECD (amino acids 32-193 of SEQ ID NO: 1 with a 7xHis tail) (UniProt Q9H7M9 33-193)
Test: SPR; pH 6.0

T1 sequence (Q9H7M9 other isoform, or with tags, fused parts or gaps): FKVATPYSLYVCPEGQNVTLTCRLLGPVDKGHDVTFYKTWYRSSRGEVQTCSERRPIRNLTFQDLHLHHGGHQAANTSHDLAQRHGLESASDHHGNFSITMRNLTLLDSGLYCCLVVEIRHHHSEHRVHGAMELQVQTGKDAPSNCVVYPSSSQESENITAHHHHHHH

In order of falling Kd:
1. B15  50 nM
2. B2  21 nM
3. B14  19 nM
4. B8  15 nM
5. B16  12 nM
6. B18  10 nM
7. B21  8.3 nM
8. B20  4.4 nM
9. B19  3.4 nM
10. B9  2.6 nM
11. B6  1.4 nM
12. B12  1.2 nM
13. B7  0.48 nM
14. B11  0.43 nM
15. B3  0.31 nM
16. B13  0.26 nM
17. B4  0.25 nM
18. B17  0.24 nM
19. B1  0.23 nM
20. B10  0.21 nM
21. B5  0.19 nM

Molecular target: T1, monovalent hVISTA-ECD (amino acids …)
Test: SPR; pH 6.7

In order of falling Kd:
1. B14  ~8200 nM
2. B21  370 nM
3. B20  230 nM
4. B2  210 nM
5. B19  120 nM
6. B16  ~110 nM
7. B8  ~81 nM
8. B9  71 nM
9. B15  ~32 nM
10. B22  11 nM
11. B6  6.5 nM
12. B12  5.1 nM
13. B7  5 nM
14. B11  3.7 nM
15. B1  2.3 nM
16. B3  2 nM
17. B17  2 nM
18. B10  1.6 nM
19. B13  1.5 nM
20. B5  1.3 nM
21. B4  1.1 nM

Molecular target: T1, monovalent hVISTA-ECD (amino acids …)
Test: SPR; pH 7.4

In order of falling Kd:
1. B7  72 nM
2. B6  65 nM
3. B11  48 nM
4. B12  42 nM
5. B1  41 nM
6. B22  32 nM
7. B3  23 nM
8. B17  21 nM
9. B5  20 nM
10. B10  18 nM
11. B13  14 nM
12. B4  3.7 nM

Molecular target: T1, monovalent hVISTA-ECD (amino acids …)
Test: SPR; pH 6.0
Remark: another data set of the same source

In order of falling Kd:
1. B35  ~82 nM
2. B28  62 nM
3. B27  ~42 nM
4. B23  20 nM
5. B31  9.6 nM
6. B34  8.3 nM
7. B24  5.8 nM
8. B25  5.7 nM
9. B33  4 nM
10. B37  3.2 nM
11. B26  2.7 nM
12. B36  2.1 nM
13. B30  1.9 nM
14. B29  1.3 nM
15. B32  0.88 nM

Molecular target: T1, monovalent hVISTA-ECD (amino acids …)
Test: SPR; pH 6.7
Remark: another data set of the same source

In order of rising Kd:
1. B32  7.5 nM
2. B26  11 nM
3. B22  11 nM
4. B29  14 nM
5. B30  15 nM
6. B36  17 nM
7. B23  ~39 nM
8. B24  120 nM
9. B33  120 nM
10. B37  210 nM
11. B25  380 nM
12. B27  5200 nM
13. B35  10000 nM

Molecular target: T1, monovalent hVISTA-ECD (amino acids …)
Test: SPR; pH 7.4
Remark: another data set of the same source

In order of falling Kd:
1. B30  280 nM
2. B36  220 nM
3. B29  170 nM
4. B32  87 nM
5. B26  41 nM
6. B22  32 nM
